± gives the standard error. Variants at the floor of the assay were thinned out.
B1: glmS ribozyme (parent)
chain: AUAAAAGCGCCAGAACUACAGAAAUGUAGUUGACGAGGAGGAGGUUUAUCGAAUUUUCGGCGGAUGCCUCCAAA

Experiments:
Conditions in all cases: with glucosamine-6-phosphate
glucosamine-6-phosphate [1] = variants of: B1; assay: self-cleavage kobs at 640 uM GlcN6P; higher = faster cleavage; RNA array
In short: (§1)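 Ribozyme variants carrying barcodes were transcribed in situ on sequenced MiSeq chips by E. coli RNA polymerase and tracked at 37 °C with a hybridised Cy3 probe. They were exposed to 40 μM to 10 mM glucosamine-6-phosphate in HEPES/KCl/Mg(OAc)2 buffer. kobs came from exponential decay fits of normalised per-tile medians, and kcat and KM from weighted Michaelis–Menten fits.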

glucosamine-6-phosphate [2] = variants of: B1; assay: self-cleavage kobs at 2500 uM GlcN6P; higher = faster cleavage; RNA array
In short: as §1

glucosamine-6-phosphate [3] = variants of: B1; assay: self-cleavage kobs at 10000 uM GlcN6P; higher = faster cleavage; RNA array
In short: as §1

G32U A33G
self-cleavage kobs at 640 uM GlcN6P (glucosamine-6-phosphate [1]): < 1e-05 s⁻¹

U31G G38U U69A C71U
self-cleavage kobs at 640 uM GlcN6P (glucosamine-6-phosphate [1]): 0.000772 ± 0.0003 s⁻¹

C19A U30A
self-cleavage kobs at 640 uM GlcN6P (glucosamine-6-phosphate [1]): 0.000125 ± 2.9e-05 s⁻¹
self-cleavage kobs at 2500 uM GlcN6P (glucosamine-6-phosphate [2]): 0.000235 ± 4.3e-05 s⁻¹

C16U A36C G38A
self-cleavage kobs at 640 uM GlcN6P (glucosamine-6-phosphate [1]): < 1e-05 s⁻¹
self-cleavage kobs at 10000 uM GlcN6P (glucosamine-6-phosphate [3]): < 1e-05 s⁻¹

A24C U47G C67A
self-cleavage kobs at 640 uM GlcN6P (glucosamine-6-phosphate [1]): 0.000315 ± 7.3e-05 s⁻¹
self-cleavage kobs at 2500 uM GlcN6P (glucosamine-6-phosphate [2]): 0.000647 ± 0.00024 s⁻¹

A15C C34U G66C
self-cleavage kobs at 640 uM GlcN6P (glucosamine-6-phosphate [1]): < 1e-05 s⁻¹
self-cleavage kobs at 2500 uM GlcN6P (glucosamine-6-phosphate [2]): < 1e-05 s⁻¹

A15U A33G G41U
self-cleavage kobs at 640 uM GlcN6P (glucosamine-6-phosphate [1]): < 1e-05 s⁻¹

A14U A15G A64C
self-cleavage kobs at 640 uM GlcN6P (glucosamine-6-phosphate [1]): < 1e-05 s⁻¹

U30G C34U G35A C68A
self-cleavage kobs at 640 uM GlcN6P (glucosamine-6-phosphate [1]): 0.00169 ± 0.00067 s⁻¹

A15U C16A C71U
self-cleavage kobs at 640 uM GlcN6P (glucosamine-6-phosphate [1]): 0.000111 ± 3.7e-05 s⁻¹
self-cleavage kobs at 2500 uM GlcN6P (glucosamine-6-phosphate [2]): 0.000598 ± 0.00019 s⁻¹

A14G G43C G51U A64G
self-cleavage kobs at 640 uM GlcN6P (glucosamine-6-phosphate [1]): < 1e-05 s⁻¹

C16A G38U U47A
self-cleavage kobs at 640 uM GlcN6P (glucosamine-6-phosphate [1]): < 1e-05 s⁻¹

U30G U31G U49G U69G
self-cleavage kobs at 640 uM GlcN6P (glucosamine-6-phosphate [1]): 7.71e-05 ± 2.2e-05 s⁻¹
self-cleavage kobs at 2500 uM GlcN6P (glucosamine-6-phosphate [2]): 6.45e-05 ± 2.7e-05 s⁻¹

G32A U54A C68A
self-cleavage kobs at 640 uM GlcN6P (glucosamine-6-phosphate [1]): 0.000374 ± 0.00012 s⁻¹
self-cleavage kobs at 2500 uM GlcN6P (glucosamine-6-phosphate [2]): 0.000108 ± 4.1e-05 s⁻¹

C16U G32U C34G A53C
self-cleavage kobs at 640 uM GlcN6P (glucosamine-6-phosphate [1]): < 1e-05 s⁻¹
self-cleavage kobs at 2500 uM GlcN6P (glucosamine-6-phosphate [2]): < 1e-05 s⁻¹

C16U U57G C68U
self-cleavage kobs at 640 uM GlcN6P (glucosamine-6-phosphate [1]): 3.89e-05 ± 1.6e-05 s⁻¹

A14U G38A A53G
self-cleavage kobs at 640 uM GlcN6P (glucosamine-6-phosphate [1]): < 1e-05 s⁻¹

C16A U56G U65G
self-cleavage kobs at 640 uM GlcN6P (glucosamine-6-phosphate [1]): 5.32e-05 ± 2.4e-05 s⁻¹
self-cleavage kobs at 2500 uM GlcN6P (glucosamine-6-phosphate [2]): 0.000165 ± 5.6e-05 s⁻¹

U30A C34U G41C G51A
self-cleavage kobs at 640 uM GlcN6P (glucosamine-6-phosphate [1]): < 1e-05 s⁻¹

U31A A53G U65A C70A
self-cleavage kobs at 640 uM GlcN6P (glucosamine-6-phosphate [1]): 6.1e-05 ± 2.4e-05 s⁻¹

U31A U56G C58G
self-cleavage kobs at 640 uM GlcN6P (glucosamine-6-phosphate [1]): 9.04e-05 ± 1.6e-05 s⁻¹
self-cleavage kobs at 2500 uM GlcN6P (glucosamine-6-phosphate [2]): 0.000252 ± 5e-05 s⁻¹

U31A A39C C50G C71A
self-cleavage kobs at 640 uM GlcN6P (glucosamine-6-phosphate [1]): < 1e-05 s⁻¹
self-cleavage kobs at 2500 uM GlcN6P (glucosamine-6-phosphate [2]): < 1e-05 s⁻¹
self-cleavage kobs at 10000 uM GlcN6P (glucosamine-6-phosphate [3]): < 1e-05 s⁻¹

G29A G43A U56A
self-cleavage kobs at 640 uM GlcN6P (glucosamine-6-phosphate [1]): < 1e-05 s⁻¹

G29C A53G G63U
self-cleavage kobs at 640 uM GlcN6P (glucosamine-6-phosphate [1]): < 1e-05 s⁻¹

U31G G44U U46G C58A
self-cleavage kobs at 640 uM GlcN6P (glucosamine-6-phosphate [1]): < 1e-05 s⁻¹

U31A A36C G37U U49C
self-cleavage kobs at 640 uM GlcN6P (glucosamine-6-phosphate [1]): < 1e-05 s⁻¹

A15U G40C A52U
self-cleavage kobs at 640 uM GlcN6P (glucosamine-6-phosphate [1]): < 1e-05 s⁻¹

C16A U56G C58G G62C
self-cleavage kobs at 640 uM GlcN6P (glucosamine-6-phosphate [1]): < 1e-05 s⁻¹

U31A C58G A64C C68U
self-cleavage kobs at 640 uM GlcN6P (glucosamine-6-phosphate [1]): 0.00011 ± 3.5e-05 s⁻¹
self-cleavage kobs at 2500 uM GlcN6P (glucosamine-6-phosphate [2]): 8.36e-05 ± 2.2e-05 s⁻¹

G29A U30A U31C
self-cleavage kobs at 640 uM GlcN6P (glucosamine-6-phosphate [1]): 0.000152 ± 2.2e-05 s⁻¹
self-cleavage kobs at 2500 uM GlcN6P (glucosamine-6-phosphate [2]): 0.000309 ± 6.5e-05 s⁻¹

U31G G62A
self-cleavage kobs at 640 uM GlcN6P (glucosamine-6-phosphate [1]): < 1e-05 s⁻¹

U31C G38U A39C G43U G62A U69G
self-cleavage kobs at 640 uM GlcN6P (glucosamine-6-phosphate [1]): < 1e-05 s⁻¹

C16G U45A C58A
self-cleavage kobs at 640 uM GlcN6P (glucosamine-6-phosphate [1]): 6.95e-05 ± 1.6e-05 s⁻¹
self-cleavage kobs at 2500 uM GlcN6P (glucosamine-6-phosphate [2]): 0.000197 ± 3.9e-05 s⁻¹

A14U U46G G60A C71A
self-cleavage kobs at 640 uM GlcN6P (glucosamine-6-phosphate [1]): < 1e-05 s⁻¹

A15U C58U U69A
self-cleavage kobs at 640 uM GlcN6P (glucosamine-6-phosphate [1]): 0.000113 ± 2.4e-05 s⁻¹
self-cleavage kobs at 2500 uM GlcN6P (glucosamine-6-phosphate [2]): 0.000115 ± 3.3e-05 s⁻¹

A14G U69A C70A
self-cleavage kobs at 640 uM GlcN6P (glucosamine-6-phosphate [1]): 5.74e-05 ± 2.2e-05 s⁻¹
self-cleavage kobs at 2500 uM GlcN6P (glucosamine-6-phosphate [2]): 8.42e-05 ± 1.9e-05 s⁻¹
